What was measured:
[1] = molecular target: T1, CD28 (Homo sapiens, UniProt P10747); assay: Jurkat/IL2 + CHO/OKT3 +/- PD-L1 reporter assay: PD-L1-dependent CD28 costimulation; type: cell-based; set-up: host or cells: Jurkat cells expressing an IL-2-luciferase reporter; details: Table E13; Jurkat/IL2 + CHO/OKT3/PD-L1; 5.0 nM
Outline: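 Readout is relative luminescence from lysed cocultures: test protein given 15 min at room temperature to Jurkat cells before adding CHO artificial APCs displaying OKT3 alone or OKT3 plus PD-L1, then 5 h at 37 °C, 5% CO2.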

[2] = molecular target: huCTLA4 (Homo sapiens, UniProt P16410); assay: Flow binding to CHO cells stably expressing CTLA4; set-up: huCTLA4 and huPD-L1, full-length mammalian surface expression constructs were generated; expressed in transfected cells; host or cells: CHO cells, lentiviral transduction, sorted to >98% purity; details: Table E11, 33.3 nM; for CTLA4 Fold change to WT CD80: listed as WT CD80 ECD-Fc = 1.0; for CTLA4 MFI at 33.3 nM: CHO cells stably expressing CTLA4
Outline: (§1)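 Binding EC50 and PE mean fluorescence intensity derived by flow cytometry using PE-labelled anti-human Fc secondary. Target cells were CTLA4- or PD-L1-transfected CHO lines and CD28-expressing Jurkat/IL2 reporter cells, stained with fusion proteins on ice for 45 min following BSA blocking.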

[3] = molecular target: T1, CD28; assay: Flow binding to Jurkat/IL2 reporter cells (CD28); set-up: host or cells: Jurkat cells expressing an IL-2-luciferase reporter; details: Table E11, 33.3 nM; for CD28 Fold change to WT CD80: listed as WT CD80 ECD-Fc = 1.0; for CD28 MFI at 33.3 nM: Jurkats (CD28)
Outline: as §1

[4] = molecular target: huPD-L1 (Homo sapiens, UniProt Q9NZQ7); assay: Flow binding to CHO cells stably expressing PD-L1; set-up: huCTLA4 and huPD-L1, full-length mammalian surface expression constructs were generated; expressed in transfected cells; host or cells: CHO cells, lentiviral transduction, sorted to >98% purity; details: Table E11; for PD-L1 Fold change to WT CD80 / PD-L1 MFI at 33.3 nM: 33.3 nM; for PD-L1 Fold change to WT CD80: listed as WT CD80 ECD-Fc = 1.0; for PD-L1 MFI at 33.3 nM: CHO cells stably expressing PD-L1; for Ratio of PDL1:CD28: MFI at 33.3 nM
Outline: as §1

Chain of huCTLA4 (P16410 36-223): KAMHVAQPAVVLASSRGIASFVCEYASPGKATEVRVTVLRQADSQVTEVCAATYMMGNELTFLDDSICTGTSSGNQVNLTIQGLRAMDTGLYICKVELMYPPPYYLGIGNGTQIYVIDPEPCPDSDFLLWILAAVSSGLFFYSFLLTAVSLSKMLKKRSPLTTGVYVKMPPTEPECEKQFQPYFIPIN
Chain of huPD-L1 (Q9NZQ7 19-290): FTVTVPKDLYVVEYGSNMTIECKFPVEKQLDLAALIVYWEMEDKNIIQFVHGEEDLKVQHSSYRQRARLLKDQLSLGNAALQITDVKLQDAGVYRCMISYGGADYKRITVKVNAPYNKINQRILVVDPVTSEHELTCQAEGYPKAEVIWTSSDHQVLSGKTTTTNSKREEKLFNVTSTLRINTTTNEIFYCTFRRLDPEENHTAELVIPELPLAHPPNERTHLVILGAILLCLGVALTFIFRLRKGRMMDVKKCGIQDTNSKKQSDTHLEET

Row | Molecule | Fold Increase over WT CD80-IgV-Fe [1] | Relative Luciferase Units (RLU), CD80 Cone 5.0 nM [1] | CTLA4 Fold change to WT CD80 [2] | CTLA4 MFI at 33.3 nM [2] | CD28 Fold change to WT CD80 [3] | CD28 MFI at 33.3 nM [3] | PD-L1 Fold change to WT CD80 [4] | PD-L1 MFI at 33.3 nM [4] | Ratio of PDL1:CD28 [4]
1 | Q33R/E35D/M38I/M47L/V68M (protein, UniProt P33681 35-288, looked up, variant Q33R E35D M38I M47L V68M) T-lymphocyte activation …: VIHVTKEVKEVATLSCGHNVSVEELAQTRIYWRKDKKIVLTMMSGDLNIWPEYKNRTIFDITNNLSIMILALRPSDEGTYECVVLKYEKDAFKREHLAEVTLSVKADFPTPSISDFEIPTSNIRRIICSTSGGFPEPHLSWLENGEELNAINTTVSQDPETELYAVSSKLDFNMTTNHSFMCLIKYGHLRVNQTFNWNTTKQEHFPDNLLPSWAITLISVNGIFVICCLTYCFAPRCRERRRNERLRRESVRPV | 0.4 | 147 RLU | 0.1 | 107 | 0.5 | 15 | 320.4 | 16502 | 1107.5
2 | E24D/E35D/M47L/V68M/E95V/L97Q (protein, UniProt P33681 35-288, looked up, variant E24D E35D M47L V68M E95V L97Q) T-lymphocyte activation …: VIHVTKEVKEVATLSCGHNVSVEDLAQTRIYWQKDKKMVLTMMSGDLNIWPEYKNRTIFDITNNLSIMILALRPSDEGTYECVVLKYEKDAFKRVHQAEVTLSVKADFPTPSISDFEIPTSNIRRIICSTSGGFPEPHLSWLENGEELNAINTTVSQDPETELYAVSSKLDFNMTTNHSFMCLIKYGHLRVNQTFNWNTTKQEHFPDNLLPSWAITLISVNGIFVICCLTYCFAPRCRERRRNERLRRESVRPV | 2.7 | 1087 RLU | 8.8 | 15505 | 0.5 | 15 | 362.1 | 18649 | 1268.6
3 | T13R/Q33L/E35D/M47V/T62S/V68M/L85M (protein, UniProt P33681 35-288, looked up, variant T13R Q33L E35D M47V T62S V68M L85M) T-lymphocyte activation …: VIHVTKEVKEVARLSCGHNVSVEELAQTRIYWLKDKKMVLTMMSGDVNIWPEYKNRTIFDISNNLSIMILALRPSDEGTYECVVMKYEKDAFKREHLAEVTLSVKADFPTPSISDFEIPTSNIRRIICSTSGGFPEPHLSWLENGEELNAINTTVSQDPETELYAVSSKLDFNMTTNHSFMCLIKYGHLRVNQTFNWNTTKQEHFPDNLLPSWAITLISVNGIFVICCLTYCFAPRCRERRRNERLRRESVRPV | 0.3 | 136 RLU | 0.1 | 105 | 0.5 | 16 | 77.0 | 3968 | 248.0
4 | T13R/Q33L/E35D/M47L/V68M/L85M (protein, UniProt P33681 35-288, looked up, variant T13R Q33L E35D M47L V68M L85M) T-lymphocyte activation …: VIHVTKEVKEVARLSCGHNVSVEELAQTRIYWLKDKKMVLTMMSGDLNIWPEYKNRTIFDITNNLSIMILALRPSDEGTYECVVMKYEKDAFKREHLAEVTLSVKADFPTPSISDFEIPTSNIRRIICSTSGGFPEPHLSWLENGEELNAINTTVSQDPETELYAVSSKLDFNMTTNHSFMCLIKYGHLRVNQTFNWNTTKQEHFPDNLLPSWAITLISVNGIFVICCLTYCFAPRCRERRRNERLRRESVRPV | 0.4 | 153 RLU | 0.1 | 141 | 0.5 | 15.7 | 62.7 | 3228 | 205.6
5 | T13R/Q33R/E35D/M38I/M47L/V68M/L85M (protein, UniProt P33681 35-288, looked up, variant T13R Q33R E35D M38I M47L V68M L85M) T-lymphocyte activation …: VIHVTKEVKEVARLSCGHNVSVEELAQTRIYWRKDKKIVLTMMSGDLNIWPEYKNRTIFDITNNLSIMILALRPSDEGTYECVVMKYEKDAFKREHLAEVTLSVKADFPTPSISDFEIPTSNIRRIICSTSGGFPEPHLSWLENGEELNAINTTVSQDPETELYAVSSKLDFNMTTNHSFMCLIKYGHLRVNQTFNWNTTKQEHFPDNLLPSWAITLISVNGIFVICCLTYCFAPRCRERRRNERLRRESVRPV | 0.4 | 153 RLU | 12.6 | 22011 | 0.5 | 14.2 | 21.5 | 1106 | 77.9
6 | T13R/Q33R/E35D/M38I/M47L/V68M/E95V/L97Q (protein, UniProt P33681 35-288, looked up, variant T13R Q33R E35D M38I M47L V68M E95V L97Q) T-lymphocyte activation …: VIHVTKEVKEVARLSCGHNVSVEELAQTRIYWRKDKKIVLTMMSGDLNIWPEYKNRTIFDITNNLSIMILALRPSDEGTYECVVLKYEKDAFKRVHQAEVTLSVKADFPTPSISDFEIPTSNIRRIICSTSGGFPEPHLSWLENGEELNAINTTVSQDPETELYAVSSKLDFNMTTNHSFMCLIKYGHLRVNQTFNWNTTKQEHFPDNLLPSWAITLISVNGIFVICCLTYCFAPRCRERRRNERLRRESVRPV | 2.5 | 993 RLU | 11.8 | 20652 | 35.4 | 1111 | 372.0 | 19157 | 17.2
7 | T13R/Q33R/E35D/M38I/M47L/V68M (protein, UniProt P33681 35-288, looked up, variant T13R Q33R E35D M38I M47L V68M) T-lymphocyte activation …: VIHVTKEVKEVARLSCGHNVSVEELAQTRIYWRKDKKIVLTMMSGDLNIWPEYKNRTIFDITNNLSIMILALRPSDEGTYECVVLKYEKDAFKREHLAEVTLSVKADFPTPSISDFEIPTSNIRRIICSTSGGFPEPHLSWLENGEELNAINTTVSQDPETELYAVSSKLDFNMTTNHSFMCLIKYGHLRVNQTFNWNTTKQEHFPDNLLPSWAITLISVNGIFVICCLTYCFAPRCRERRRNERLRRESVRPV | 0.4 | 152 RLU | 0.1 | 193 | 0.4 | 13.8 | 87.0 | 4482 | 324.8
8 | T13R/Q33R/E35D/M47L/V68M (protein, CD80 v381 ECD) VIHVTKEVKEVARLSCGHNVSVEELAQTRIYWRKDKKMVLTMMSGDLNIWPEYKNRTIFDITNNLSIMILALRPSDEGTYECVVLKYEKDAFKREHLAEVTLSVKADFPTPSISDFETPTSNIRRIICSTSGGFPEPHLSWLENGEELNAINTTVSQDPETELYAVSSKLDFNMTTNHSFMCLIKYGHLRVNQTFNWNTTKQEHFPDN | 1.0 | 399 RLU | 11.8 | 20738 | 0.4 | 14.1 | 285.0 | 14680 | 1041.1
9 | T13R/Q33R/E35D/M47L/V68M/L85M (protein, CD80 v382 ECD) VIHVTKEVKEVARLSCGHNVSVEELAQTRIYWRKDKKMVLTMMSGDLNIWPEYKNRTIFDITNNLSIMILALRPSDEGTYECVVMKYEKDAFKREHLAEVTLSVKADFPTPSISDFETPTSNIRRIICSTSGGFPEPHLSWLENGEELNAINTTVSQDPETELYAVSSKLDFNMTTNHSFMCLIKYGHLRVNQTFNWNTTKQEHFPDN | 2.9 | 1160 RLU | 7.7 | 13438 | 3.6 | 112 | 367.7 | 18938 | 169.1

Reference: US20220177587A1, “METHODS AND USES OF VARIANT CD80 FUSION PROTEINS AND RELATED CONSTRUCTS” (Alpine Immune Sciences, Inc., priority 2018, published 2022)
